In patent US20140213772A1 (AbbVie / Abbott, published 2014):

How the values were obtained:
IL-1B [1] = target: T1, IL-1B (UniProt P01584 117-269); experiment: SPR (Biacore)
IL-17 [2] = target: T2, IL-17 (UniProt Q16552 24-155); experiment: SPR (Biacore)
IL-1B [3] = target: T1, IL-1B; experiment: cell-based or functional assay
IL-17 [4] = target: T2, IL-17; experiment: cell-based or functional assay
IL-17 [5] = target: T2, IL-17; experiment: ELISA
IL-17 [6] = target: T2, IL-17; experiment: cell-based or functional assay; remark: listed apart in the source
TNF [7] = target: T3, TNF (UniProt P01375 77-233); experiment: ELISA
TNF [8] = target: T3, TNF; experiment: cell-based or functional assay

T2 sequence (Q16552 24-155 limits assumed): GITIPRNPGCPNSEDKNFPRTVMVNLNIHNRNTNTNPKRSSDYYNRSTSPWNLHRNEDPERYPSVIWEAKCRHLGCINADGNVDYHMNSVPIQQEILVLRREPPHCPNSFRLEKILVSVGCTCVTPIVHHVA
T3 sequence (P01375 77-233 limits assumed): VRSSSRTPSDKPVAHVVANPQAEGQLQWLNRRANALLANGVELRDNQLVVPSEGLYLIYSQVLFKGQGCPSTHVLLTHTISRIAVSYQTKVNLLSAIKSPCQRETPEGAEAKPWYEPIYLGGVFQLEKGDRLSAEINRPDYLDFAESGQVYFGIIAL

Binder | Kd (IL-1B [1]) [nM] | Kd (IL-17 [2]) [nM] | IL-1B neutralization IC50 (pM) (IL-1B [3]) | IL-17 neutralization IC50 (pM) (IL-17 [4]) | EC50 (IL-17 [5]) [nM] | Neutralization IC50 (pM), IL-17 (IL-17 [6]) [pM] | EC50 (TNF [7]) [nM] | Neutralization IC50 (pM), TNF (TNF [8]) [pM]
CODH1 (bispecific antibody) chain 1: EVQLQESGPGLVKPSETLSLTCTVSGFSLSDYGVSWIRQPPGKGLEWLGLIWGGGDTYYNSPLKSRLTISKDNSKSQVSLKLSSVTAADTAVYYCAKQRTLWGYDLYGMDYWGQGTLVTVSSGEVQLVQSGAEVKKPGESVKISCKASGGSFRSYGISWVRQAPGQGLEWMGGITHFFGITDYAQKFQGRVTITADESTTTAYMELSGLTSDDTAVYYCAREPNDFWGGYYDTHDFDSWGQGTTVTVSSGG chain 2: EIVLTQSPDFQSVTPKEKVTITCRASQNIGSELHWYQQKPDQSPKLLIKYASHSISGVPSRFSGSGSGTDFTLTINGLEAEDAATYYCHQSDTLPHTFGQGTKVDIKGGGGGGGDTQVTQSPSSLSASVGDRVTITCITSTDIDVDMNWYQQKPGKPPKLLISQGNTLRPGVPSRFSSSGSGTDFTFTISSLQPEDFATYYCLQSDNLPLTFGQGTKLEIKGGGGGR | 0.19 | < 0.0001 | 1300 | 30 | – | – | – | –
AB274 (antibody, V domains shown) VH: EVQLVQSGAEVKKPGSSVKVSCKASGGSFGGYGIGWVRQAPGQGLEWMGGITPFFGFADYAQKFQGRVTITADESTTTAYMELSGLTSDDTAVYYCARDPNEFWNGYYSTHDFDSWGQGTTVTVSS VL: EIVLTQSPDFQSVTPKEKVTITCRASQDIGSELHWYQQKPDQPPKLLIKYASHSTSGVPSRFSGSGSGTDFTLTINGLEAEDAGTYYCHQTDSLPYTFGPGTKVDIKR | – | – | – | – | 0.203 | 10 | – | –
AB270 (antibody, V domains shown, Benchmark anti-IL-1B mAb; also called 1B12.1; 1B12-1) VH: EVQLQESGPGLVKPSETLSLTCTVSGFSLSDYGVSWIRQPPGKGLEWLGLIWGGGDTYYNSPLKSRLTISKDNSKSQVSLKLSSVTAADTAVYYCAKQRTLWGYDLYGMDYWGQGTLVTVSS VL: DTQVTQSPSSLSASVGDRVTITCITSTDIDVDMNWYQQKPGKPPKLLISQGNTLRPGVPSRFSSSGSGTDFTFTISSLQPEDFATYYCLQSDNLPLTFGQGTKLEIK | 0.089 | – | 245 | – | – | – | – | –
AB461 (antibody, V domains shown, Benchmark anti-IL-17 mAb; also called B6-5G) VH: EVQLVQSGAEVKKPGESVKISCKASGGSFRSYGISWVRQAPGQGLEWMGGITHFFGITDYAQKFQGRVTITADESTTTAYMELSGLTSDDTAVYYCAREPNDFWGGYYDTHDFDSWGQGTTVTVSS VL: EIVLTQSPDFQSVTPKEKVTITCRASQNIGSELHWYQQKPDQSPKLLIKYASHSISGVPSRFSGSGSGTDFTLTINGLEAEDAATYYCHQSDTLPHTFGQGTKVDIK | – | 0.0009 | – | 2 | – | – | – | –
AB441 (antibody, V domains shown) VH: EVQLVQSGAEVKKPGASVKVSCKASGYTFANYGIIWVRQAPGQGLEWMGWINTYTGKPTYAQKFQGRVTMTTDTSTSTAYMELSSLRSEDTAVYYCARKLFTTMDVTDNAMDYWGQGTTVTVSS VL: DIQMTQSPSSLSASVGDRVTITCRASQDISQYLNWYQQKPGKAPKLLIYYTSRLQSGVPSRFSGSGSGTDFTLTISSLQPEDFATYFCQQGNTWPPTFGQGTKLEIKR | – | – | – | – | – | – | 0.398 | 6

Results, then the binder that gave them:

Kd (IL-1B [1]) [nM] | Kd (IL-17 [2]) [nM] | IL-1B neutralization IC50 (pM) (IL-1B [3]) | IL-17 neutralization IC50 (pM) (IL-17 [4]) | EC50 (IL-17 [5]) [nM] | Neutralization IC50 (pM), IL-17 (IL-17 [6]) [pM] | EC50 (TNF [7]) [nM] | Neutralization IC50 (pM), TNF (TNF [8]) [pM] | Binder
0.13 | < 0.0002 | 1160 | 12 | – | – | – | – | CODH3 (bispecific antibody) chain 1: EVQLVESGGGVVQPGRSLRLSCSASGFIFSRYDMSWVRQAPGKGLEWVAYISHGGAGTYYPDSVKGRFTISRDNSKNTLFLQMDSLRPEDTGVYFCARGGVTKGYFDVWGQGTPVTVSSGEVQLVQSGAEVKKPGESVKISCKASGGSFRSYGISWVRQAPGQGLEWMGGITHFFGITDYAQKFQGRVTITADESTTTAYMELSGLTSDDTAVYYCAREPNDFWGGYYDTHDFDSWGQGTTVTVSSGG chain 2: EIVLTQSPDFQSVTPKEKVTITCRASQNIGSELHWYQQKPDQSPKLLIKYASHSISGVPSRFSGSGSGTDFTLTINGLEAEDAATYYCHQSDTLPHTFGQGTKVDIKGGGGGGGDIQMTQSPSSLSASVGDRVTITCRASGNIHNYLTWYQQTPGKAPKLLIYNAKTLADGVPSRFSGSGSGTDYTFTISSLQPEDIATYYCQHFWSIPYTFGQGTKLQITGGGGGR
800 | – | 2040 | 220 | – | – | – | – | CODH12 (bispecific antibody) chain 1: EVQLVESGGGVVQPGRSLRLSCSASGFIFSRYDMSWVRQAPGKGLEWVAYISHGGAGTYYPDSVKGRFTISRDNSKNTLFLQMDSLRPEDTGVYFCARGGVTKGYFDVWGQGTPVTVSSGGGGSGGGEIVLTQSPDFQSVTPKEKVTITCRASQNIGSELHWYQQKPDQSPKLLIKYASHSISGVPSRFSGSGSGTDFTLTINGLEAEDAATYYCHQSDTLPHTFGQGTKVDIKGGSGG chain 2: EVQLVQSGAEVKKPGESVKISCKASGGSFRSYGISWVRQAPGQGLEWMGGITHFFGITDYAQKFQGRVTITADESTTTAYMELSGLTSDDTAVYYCAREPNDFWGGYYDTHDFDSWGQGTTVTVSSGGGGSGGGDIQMTQSPSSLSASVGDRVTITCRASGNIHNYLTWYQQTPGKAPKLLIYNAKTLADGVPSRFSGSGSGTDYTFTISSLQPEDIATYYCQHFWSIPYTFGQGTKLQITGGGR
0.17 | 0.0004 | 1600 | 29 | – | – | – | – | CODH2 (bispecific antibody) chain 1: EVQLVQSGAEVKKPGESVKISCKASGGSFRSYGISWVRQAPGQGLEWMGGITHFFGITDYAQKFQGRVTITADESTTTAYMELSGLTSDDTAVYYCAREPNDFWGGYYDTHDFDSWGQGTTVTVSSGEVQLQESGPGLVKPSETLSLTCTVSGFSLSDYGVSWIRQPPGKGLEWLGLIWGGGDTYYNSPLKSRLTISKDNSKSQVSLKLSSVTAADTAVYYCAKQRTLWGYDLYGMDYWGQGTLVTVSSGG chain 2: DTQVTQSPSSLSASVGDRVTITCITSTDIDVDMNWYQQKPGKPPKLLISQGNTLRPGVPSRFSSSGSGTDFTFTISSLQPEDFATYYCLQSDNLPLTFGQGTKLEIKGGGGGGGEIVLTQSPDFQSVTPKEKVTITCRASQNIGSELHWYQQKPDQSPKLLIKYASHSISGVPSRFSGSGSGTDFTLTINGLEAEDAATYYCHQSDTLPHTFGQGTKVDIKGGGGGR
390 | – | 1660 | 7.4 | – | – | – | – | CODH15 (bispecific antibody) chain 1: EIVLTQSPDFQSVTPKEKVTITCRASQNIGSELHWYQQKPDQSPKLLIKYASHSISGVPSRFSGSGSGTDFTLTINGLEAEDAATYYCHQSDTLPHTFGQGTKVDIKGGGGGGGDIQMTQSPSSLSASVGDRVTITCRASGNIHNYLTWYQQTPGKAPKLLIYNAKTLADGVPSRFSGSGSGTDYTFTISSLQPEDIATYYCQHFWSIPYTFGQGTKLQITGGGGG chain 2: EVQLVESGGGVVQPGRSLRLSCSASGFIFSRYDMSWVRQAPGKGLEWVAYISHGGAGTYYPDSVKGRFTISRDNSKNTLFLQMDSLRPEDTGVYFCARGGVTKGYFDVWGQGTPVTVSSGEVQLVQSGAEVKKPGESVKISCKASGGSFRSYGISWVRQAPGQGLEWMGGITHFFGITDYAQKFQGRVTITADESTTTAYMELSGLTSDDTAVYYCAREPNDFWGGYYDTHDFDSWGQGTTVTVSSGGR
0.11 | – | 113 | 4 | – | – | – | – | CODH4 (bispecific antibody) chain 1: EVQLVQSGAEVKKPGESVKISCKASGGSFRSYGISWVRQAPGQGLEWMGGITHFFGITDYAQKFQGRVTITADESTTTAYMELSGLTSDDTAVYYCAREPNDFWGGYYDTHDFDSWGQGTTVTVSSGEVQLVESGGGVVQPGRSLRLSCSASGFIFSRYDMSWVRQAPGKGLEWVAYISHGGAGTYYPDSVKGRFTISRDNSKNTLFLQMDSLRPEDTGVYFCARGGVTKGYFDVWGQGTPVTVSSGG chain 2: DIQMTQSPSSLSASVGDRVTITCRASGNIHNYLTWYQQTPGKAPKLLIYNAKTLADGVPSRFSGSGSGTDYTFTISSLQPEDIATYYCQHFWSIPYTFGQGTKLQITGGGGGGGEIVLTQSPDFQSVTPKEKVTITCRASQNIGSELHWYQQKPDQSPKLLIKYASHSISGVPSRFSGSGSGTDFTLTINGLEAEDAATYYCHQSDTLPHTFGQGTKVDIKGGGGGR
